Measurements: patent US20220251184A1 (Regeneron, published 2022)

B1: H4H17871P (antibody, V domains shown)
VH: EVQLVESGGGLVQPGGSLRLSCAASGFTFNNYAMSWVRQAPGKGLEWVSAISGSGDSTYYADSVKGRFTISRDNSKNTLYLQMNSLRAEDTAVYYCAKRSRSSPFDPWGQGTLVTVSS
VL: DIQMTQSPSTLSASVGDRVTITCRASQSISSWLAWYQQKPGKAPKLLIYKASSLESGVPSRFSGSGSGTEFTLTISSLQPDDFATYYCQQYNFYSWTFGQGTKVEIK
notes: Fully human antibody; also called anti-BMP6 monoclonal antibody; BMP6 antibody of the invention
B2: H4H17855P (antibody, V domains shown)
VH: EVQLVESGGGLVQPGGSLRLSCAASGFTFSSYAMSWVRQAPGKGLEWVSAISGSGGRTYYTDSVKGRFTMSRDNSKNTLYLQMNSLRAEDTAVYYCAKRPYNSPFDPWGQGTLVTVSS
VL: EIVLTQSPGTLSLSPGEGATLSCRASQSVSSSYLAWYQQKPGQAPRLLIYGASSRATGIPDRFSGSGSGTDFTLTISRLEPEDFVVYYCQHFGGTPFTFGGGTKVEIK
notes: as for B1

How the values were obtained:
[1] = target: T1, mouse BMP6 (R&D Systems, Cat #6325-BM) (mouse, UniProt P20722 372-510, limits assumed); assay: SPR (MASS-1), mAb captured on anti-human Fc, mBMP6 in solution, 37 C
T1 construct: Bought protein (R&D Systems 6325-BM or 6325-BM/CF); also called mBMP6
T1 sequence: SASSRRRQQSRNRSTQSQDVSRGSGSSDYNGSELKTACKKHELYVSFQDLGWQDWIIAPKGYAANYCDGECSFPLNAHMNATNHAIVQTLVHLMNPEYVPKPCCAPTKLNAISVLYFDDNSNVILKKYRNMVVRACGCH
Procedure: (§1) Equilibrium dissociation constants (KD values) for human and mouse BMP6 binding to purified anti-BMP6 monoclonal antibodies of this invention were determined using a real-time surface plasmon resonance (SPR) biosensor instrument, MASS-1. All binding studies were performed in 10 mM HEPES, 150 mM NaCl, 3 mM EDTA, 1 μg/mL Heparin, and 0.05% v/v Surfactant Tween-20, pH 7.4 (HBS-EHT) running buffer at 25° C. and 37° C. The HCA sensor surface was first derivatized by amine coupling the monoclonal mouse anti-human Fc antibody (GE, #BR100839) and anti-BMP6 monoclonal antibodies were individually captured. Different concentrations of human BMP6 reagents (hBMP6; R&D Systems, Cat #507-BP; 60 nM-0.94 nM; 4-fold serial dilution) or mouse BMP6 (mBMP6; R&D Systems, Cat #6325-BM; 60 nM and 15 nM) prepared in HBS-EHT running buffer were injected over the captured anti-BMP6 monoclonal antibody for 4 minutes at a flow rate of 30 μL/minute, while the dissociation of BMP6 reagent bound to captured anti-BMP6 monoclonal antibody was monitored for 10 minutes in HBS-EHT running buffer. Kinetic association (kₐ) and dissociation (kd) rate constants were determined by fitting the real-time binding sensorgrams to a 1:1 binding model with mass transport limitation using Scrubber 2.0c software. Binding dissociation equilibrium constant (KD) and dissociative half-life (t½) for different anti-BMP6 monoclonal antibodies were calculated from the kinetic rate constants as: […]

[2] = target: T2, human BMP6 (R&D Systems, Cat #507-BP) (human, UniProt P22004 375-513, limits assumed); assay: SPR (MASS-1), mAb captured on anti-human Fc, hBMP6 in solution, 25 C
T2 construct: Bought protein (R&D Systems 507-BP or 507-BP/CF); also called hBMP6; hBMP-6
T2 sequence: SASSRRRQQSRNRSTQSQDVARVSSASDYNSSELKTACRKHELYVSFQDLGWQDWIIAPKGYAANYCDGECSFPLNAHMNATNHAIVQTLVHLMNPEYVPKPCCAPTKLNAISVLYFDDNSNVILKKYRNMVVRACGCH
Procedure: as §1

[3] = target: T2, human BMP6 (R&D Systems, Cat #507-BP); assay: cell-based or functional assay
[4] = target: T1, mouse BMP6 (R&D Systems, Cat #6325-BM); assay: cell-based or functional assay
[5] = target: T1, mouse BMP6 (R&D Systems, Cat #6325-BM); assay: SPR (MASS-1), mAb captured on anti-human Fc, mBMP6 in solution, 25 C
Procedure: as §1

[6] = target: T2, human BMP6 (R&D Systems, Cat #507-BP); assay: SPR (MASS-1), mAb captured on anti-human Fc, hBMP6 in solution, 37 C
Procedure: as §1

Human BMP7 = target: T3, Human BMP7 (human, UniProt P18075 293-431); assay: BLI (Octet HTX), mAb captured on Protein A sensor, 100 nM ligand, 25 C
T3 sequence (looked up): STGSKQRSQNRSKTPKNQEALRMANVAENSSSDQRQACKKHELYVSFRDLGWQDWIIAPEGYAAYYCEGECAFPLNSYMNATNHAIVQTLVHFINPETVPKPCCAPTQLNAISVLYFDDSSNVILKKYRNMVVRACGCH
Procedure: (§2) Binding cross-reactivity of anti-BMP6 monoclonal antibodies to BMP6 family members, (Human: BMP6, BMP5, BMP7, BMP8A, BMP9, BMP10, BMP12, BMP14, BMP3b, Activin A, and GDF3 and mouse: BMP6 and GDF6) was determined using a real-time Bio-Layer Interferometry (BLI) biosensor using Octet HTX instrument. All binding studies were performed in 10 mM HEPES, 150 mM NaCl, 3 mM EDTA, 1 mg/mL BSA, 50 μg/mL Heparin, and 0.05% v/v Surfactant Tween-20, pH 7.4 (HBS-EBHT) buffer at 25° C. with the plate shaking at a speed of 1000 rpm. To assess binding cross-reactivity, Protein A coated Octet biosensor (Pall ForteBio Corp., #18-5010) was first dipped in wells containing […] of anti-BMP6 monoclonal antibodies for 4 minutes followed by submerging in wells containing 100 nM of different BMP6 family members for 4 minutes. The biosensors were washed in HBS-EBHT buffer in between every step of the experiment. At the end of each cycle, the Protein A biosensor was regenerated using three alternate 5 second dips in 10 mM Glycine pH 2.0 and 10 second dip HBS-EBHT buffer. The real-time binding response was monitored during the course of the experiment and the binding response at the end of every step was recorded and tabulated as shown in Tables 8A and 8B.

[7] = target: T2, human BMP6 (R&D Systems, Cat #507-BP); assay: as above
Procedure: as §2

Human BMP8A = target: T4, Human BMP8A (human, UniProt Q7Z5Y6 264-402, limits assumed); assay: as above
T4 sequence (looked up): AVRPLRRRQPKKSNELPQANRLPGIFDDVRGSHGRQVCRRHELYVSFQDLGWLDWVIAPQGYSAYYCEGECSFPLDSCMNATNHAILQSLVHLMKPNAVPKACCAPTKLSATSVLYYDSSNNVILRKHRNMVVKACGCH
Procedure: as §2

Binder | Kd [1] [nM] | koff [1] [s⁻¹] | kon [1] [M⁻¹ s⁻¹] | t1/2 [1] [h] | koff [2] [s⁻¹] | kon [2] [M⁻¹ s⁻¹] | t1/2 [2] [h] | IC50 [M], inhibition of 1 nM hBMP6 activation of Hep3B/BRE-luc cells (luciferase) [3] [M] | IC50 [M], inhibition of 5 nM mBMP6 activation of W-20-17/BRE-luc cells (luciferase) [4] [M] | Kd [5] [nM] | koff [5] [s⁻¹] | kon [5] [M⁻¹ s⁻¹] | t1/2 [5] [h] | kon [6] [M⁻¹ s⁻¹] | binding response (Human BMP7) [nm] | binding response [7] [nm] | binding response (Human BMP8A) [nm] | Kd [2] [nM] | Kd [6] [nM] | t1/2 [6] [h]
B1 | 4 | 9.43e-05 | 23500 | 2.05 | 4.14e-05 | 283000 | 4.65 | 1.6e-09 | 1.1e-08 | 3.39 | 0.000127 | 37400 | 1.52 | 41600 | 0 | 0.21 | 0 | – | – | –
B2 | 6.46 | 0.000154 | 23800 | 1.25 | 6.3e-05 | 178000 | 3.05 | 2.5e-10 | 1.9e-09 | 3.55 | 0.00013 | 36600 | 1.48 | 61100 | 0.05 | 0.29 | -0.02 | 0.355 | 1.34 | 2.35
